Target: T1, 6xHis-tagged Mrs6p, wild-type (S. cerevisiae, UniProt P32864 1-603)
T1 sequence: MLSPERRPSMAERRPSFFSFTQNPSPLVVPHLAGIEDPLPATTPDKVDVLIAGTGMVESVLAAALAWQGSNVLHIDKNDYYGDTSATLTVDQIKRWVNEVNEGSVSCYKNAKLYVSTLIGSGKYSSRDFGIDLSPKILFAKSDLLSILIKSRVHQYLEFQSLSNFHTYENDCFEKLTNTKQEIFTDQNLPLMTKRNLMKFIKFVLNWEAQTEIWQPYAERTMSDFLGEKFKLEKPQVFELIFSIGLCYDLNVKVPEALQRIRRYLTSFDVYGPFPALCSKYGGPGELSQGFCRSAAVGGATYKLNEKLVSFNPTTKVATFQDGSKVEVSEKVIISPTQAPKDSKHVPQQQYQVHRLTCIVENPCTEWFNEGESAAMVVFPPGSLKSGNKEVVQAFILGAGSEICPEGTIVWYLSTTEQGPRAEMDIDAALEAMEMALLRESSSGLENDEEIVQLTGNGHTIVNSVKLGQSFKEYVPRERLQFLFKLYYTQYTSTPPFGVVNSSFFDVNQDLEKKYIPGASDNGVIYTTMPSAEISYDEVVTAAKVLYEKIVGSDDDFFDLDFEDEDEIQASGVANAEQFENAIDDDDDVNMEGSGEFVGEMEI
Test: other fluorescence titration

B1: prenylated His6-tagged Rab3A (natural protein)
chain: MASATDSRYGQKESSDQNFDYMFKILIIGNSSVGKTSFLFRYADDSFTPAFVSTVGIDFKVKTIYRNDKRIKLQIWDTAGQERYRTITTAYYRGAMGFILMYDITNEESFNAVQDWSTQIKTYSWDNAQVLLVGNKCDMEDERVVSSERGRQLADHLGFEFFEASAKDNINVKQTFERLVDVICEKMSESLDTADPAVTGAKQGPQLSDQQVPPHQDCAC
modifications: prenylated (residues not stated)
- Kd: 320 nM
